In patent US10704064B2, “Recombinant yeast producing 3-hydroxypropionic acid and method for producing 3-hydroxypropionic acid using the same” (SK Innovation Co., Ltd., priority 2014, dated 2020):

B1: EUTEec: eutE type AADH of Escherichia coli HS, GenBank YP_001459232.1 (protein)
chain: MNQQDIEQVVKAVLLKMQSSDTPPAAVHEMGVFASLDDAVAAAKVAQQGLKSVAMRQLAIAAIREAGEKHARDLAELAVSETGMGRVEDKFAKNVAQARGTPGVECLSPQVLTGDNGLTLIENAPWGVVASVTPSTNPAATLINNAISLIAAGNSVIFAPHPAAKKVSQRAITLLNQAIVAAGGPENLLVTVANPDIETAQRLFKFPGIGLLVVTGGEAVVEAARKHTNKRLIAAGAGNPPVVVDETADLARAAQSIVKGASFDNNIICADEKVLIVVDSVADELMRLMEGQHAVKLTAEQAQQLQPVLLKNIDERGKGTVSRDWVGRDAAKIAAAIGLNVPQETRLLFVETTAEHPFAVTELMMPVLPVVRVANVADAIALAVKLEGGCHHTAAMHSRNIENMNQMANAIDTSIFVKNGPCIAGLGLGGEGWTTMTITTPTGEGVTSARTFVRLRRCVLVDAFRIV
modifications: EUTEec
B2: AADHta: eutE type AADH of Tolumonas auensis DSM 9187, GenBank ACQ93307.1 (protein)
chain: MNNTELESLIRTILTEQLTPSATDTPACTASSVALFDDVDSAICAAHAAFLRYQEAPLKTRSAIIAAIRAEIAPCLSELAERAAAETGMGNTADKILKNKAALENTPGIEDLKTTALTGDEGMVLFEYSPFGVVGAVAPSTNPTETIINNSISMLAAGNAIYFSPHPGAKNISLWLIQKMEEIAFKVCGIHNLIVTVKEPTFEATQQMMAHDKIALLAITGGPGIVNMGLKSGKKVIGAGAGNPPCLVDETAEIVKAAQDIVAGASFDYNLPCIAEKSVIAVDCIADQLIQQMREFGAMQITDPQQIAQLREVCIQKGAANKSLVGKSPATILAAAGIPCPAKEPRLIILEVPANDPFVVTEQLMPVLPIVRVDNFEQGLQLALKVEDGLHHTAMMHSQNVSRLNKAAHLMQTSIFVKNGPSYAGIGVGAEGFTTFTIATPTGEGTTSARTFGRLRRCVLTNGFSIR
modifications: AADHta
B3: AADHtl: eutE type AADH of Thauera linaloolentis DSM 12138, GenBank ENO90114.1 (protein)
chain: MVDIDLKNVEQIVRTVLASMQTQPQAVQPAAGRRAAPGVFTELDDAVAEASTAQRAIRNLATRVKVVEAIRKAAEAHARELAELAVAETGMGRVEDKFAKNVSQARHTPGVECLAPTALTGDRGLTLIENAAWGVIASVTPSTNPAATIINNAISMISAGNTVVFAPHPAAKKVSQRTVSLLNEASVAAGGPDNVVTTVLNPDIATAQRLFSYPGIHLLTVTGGEAVVEAARKHTDKRLIAAGAGNPPVVVDETADLARAARDIVWGASFDNNIICVDEKEIIVVDRVCDALKTEMARHKAVELTPDQGKRLVDVLLNYVGADGRGTVSRDWVGRDAAKIAAAIGLEVPADTRLLYIETPADHPFAVTELMMPVIPVVRAPDVDAAIDLAVKLEGNCRHTAAMHSRNIDALDRMANAINTSIFVKNGPCLAGLGFGGEGWTTMTISTPTGEGVTSARTFVRLRRCVLVDHFRIV
modifications: AADHtl
B4: ADHEpm: adhE type AADH of Piromyces sp. E2, GenBank AY282576.1 (protein)
chain: MSGLQMFQNLSLYGSLAEIDTSEKLNEAMDKLTAAQEQFREYNQEQVDKIFKAVALAASQNRVAFAKYAHEETQKGVFEDKVIKNEFAADYIYHKYCNDKTAGIIEYDEANGLMEIAEPVGPVVGIAPVTNPTSTIIYKSLIALKTRNCIIFSPHPGAHKASVFVVKVLHQAAVKAGAPENCIQIIFPKMDLTTELLHHQKTRFIWATGGPGLVHASYTSGKPALGGGPGNAPALIDETCDMNEAVGSIVVSKTFDCGMICATENAVVVVESVYENFVATMKKRGAYFMTPEETKKASNLLFGEGMRLNAKAVGQTAKTLAEMAGFEVPENTVVLCGEASEVKFEEPMAHEKLTTILGIYKAKDFDDGVRLCKELVTFGGKGHTAVLYTNQNNKDRIEKYQNEVPAFHILVDMPSSLGCIGDMYNFRLAPALTITCGTMGGGSSSDNIGPKHLLNIKRVGMRRENMLWFKIPKSVYFKRAILSEALSDLRDTHKRAIIITDRTMTMLGQTDKIIKACEGHGMVCTVYDKVVPDPTIKCIMEGVNEMNVFKPDLAIALGGGSAMDAAKMMRLFYEYPDQDLQDIATRFVDIRKRVVGCPKLGRLIKTLVCIPTTSGTGAEVTPFAVVTSEEGRKYPLVDYELTPDMAIVDPEFAVGMPKRLTSWTGIDALTHAIESYVSIMATDFTRPYSLRAVGLIFESLSLAYNNGKDIEAREKMHNASAIAGMAFANAFLGCCHSVAHQLGSVYHIPHGLANALMLSHIIKYNATDSPVKMGTFPQYKYPQAMRHYAEIAELLLPPTQVVKMTDVDKVQYLIDRVEQLKADVGIPKSIKETGMVTEEDFFNKVDQVAIMAFDDQCTGANPRYPLVSELKQLMIDAWNGVVPKL
modifications: ADHEpm
B5: AADHhs: eutE type AADH of Halanaerobium saccharolyticum DSM 6643, GenBank CCU77919.1 (protein)
chain: MKIKENELDKIVNQVISSLNNKQNSNDFNTKINYGIFSTMDEAIAEAVKAQACLQLNYSTEAREKIIKSIRKNVSKHVEKISEMAVEETDMGRIEDKIIKNNLAINKTPGTEDLRTEAFSGKKGLTIVEEAPFGVICSIAPVTNPTETIISNAISMIASCNGVVFNSHPGAKKVSKYIIEVLNKVIMEAGGPENLLTAVNEPTLQTVESCMRDDRIAMIVATGGPGVVNAALSSGKKAIGAGAGNPPVLVDDTVDLKRVAKDIINGASFDNNLPCTSEKAIVALESIADSLLNEMTNQNAQLVHDIKALERVILNDDGSINKALVGKDAAFILNKAGLKAKSEDLRLVIVDVDLRHPFVQKEQLMPVIPLVRAKNFNEAMEMGVDIEEGNRHTAIIHSKNVDNLTKFAKKIETTIYVKNAPSYAGIGAGGEGYATFTIAGPTGEGLTSARSFTRKRRCVLVDGFSII
modifications: AADHhs
B6: AADHbs: eutE type AADH of Blautia sp. CAG: 237, GenBank CDB76812.1 (protein)
chain: MDEIMIKNIVREVLMKTNLDISCKSDQGVFEDVNDAIDAAYIAQRDWYMNYKVEDRRRIIEAIRVVARENAPMFAKMIHEETGMGRYEDKITKNLAVIDKTPGVECLVTDAISGDSGLMIEEQAPFGVIGAITPSTNPTETIINNTISMIGGGNAVVFNVHPGAKKVCAVCLQILHKTIVENGGPANLITMQRKPDMEAVNKLTASPKIRLMVGTGGMGMVNALLKSGKKTIGAGAGNPPVVVDDTADLDKAASEIYRGASFDNNLLCLAEKETFVMDNVADELIRKMCACGAHLITPQETEQLLKVIFLEKDGKYSVNKKWVGKDASLILESIGIKDADTRLVLCEVPHDHPFVLVEQLMPIMPIVRCKTFEDCVKYAVVAENGNRHTASMFSKNVDHMTRFAKEIETTIFTKNAATLVGVGIGGEGHTTMTIAGPTGEGLTCARSFTRRRRCMLADGGLRVI
modifications: AADHbs

Tests used:
[1] = system: S. cerevisiae VSK-128 ACS2 deletion strain; assay: AADH in vivo growth assay, ACS2 deletion strain on glucose-based agar plates; format: cell-based
From the text: All copies of the ACS2 gene were deleted from the industrial S. cerevisiae VSK-128 strain in order to generate a strain with a defective PDH-bypass that was incapable of growth on glucose-based medium. Expression vectors carrying the 25 different AADH variants were then transformed into this ACS2 deletion strain to evaluate their ability to recover the growth of this strain on glucose.
There was a good correlation between the in vitro AADH enzyme activity assays and the in vivo growth recovery analyses.

AADH = AADH in vitro enzyme activity assay from yeast cell lysates; format: biochemical; details: for AADH activity: in vitro, expressed in yeast
Experimental: AADH activity was measured as described by Kozak et al. (2014, Metab. Eng. 21:46-59) by monitoring the reduction of NAD^+ at 340 nm at 30° C. The yeast cells for the cell lysates were collected, washed with water, and then resuspended into lysis buffer containing 100 mM Tris-HCl buffer (pH 7.5) and 1×EDTA free protease inhibitor cocktail (Roche). The cells were lysed with glass beads in a Precellys 24 homogenizer at 5500 rpm for 3×40 seconds and kept on ice between rounds. Lysates were centrifuged at 16 000 g for 20 min at 4° C. and supernatants were collected. The total protein concentration was determined using the Bradford method.
The enzyme assay reaction mixture contained 0.1 mM Coenzyme A, 50 mM CHES buffer (pH 9.5), 0.8 mM NAD^+, 0.2 mM DTT and 10 μL of cell extract in a total reaction volume of 200 μL. The reaction was started by adding 10 mM of freshly prepared acetaldehyde solution and reduction of NAD^+ was followed with a Thermo Konelab 20XT analyser.
Five AADH genes were originally chosen (i.e. ADHEpm, ADHEec, EUTec, EUTdz and LIN1129li) and transformed into the CEN.PK lab strain. These AADHs were expressed from a multicopy plasmid where they were under control of the TEF1 promoter.
Twenty additional novel AADH genes were chosen from the genome mining analyses to be evaluated for expression and enzyme activity in yeast.

Row | Molecule | recovery of the growth deficiency of the ACS2-deletion strain [1] | AADH activity in yeast compared to the adhE-type AADHs (AADH; CEN.PK lab strain, multicopy plasmid, TEF1 promoter) | AADH activity (AADH)
1 | B1 | capable of recovering the growth deficiency | much higher AADH activity | showed AADH activity
2 | B2 | capable of recovering the growth deficiency |  | 
3 | B3 | capable of recovering the growth deficiency |  | 
4 | B4 |  |  | showed AADH activity
5 | B5 | capable of recovering the growth deficiency |  | 
6 | B6 | capable of recovering the growth deficiency |  | 
